This is an account of results in US8227212B2, “Cell that expresses a sulfatase and a formylglycine generating enzyme” (Shire Human Genetic Therapies, Inc., priority 2003, dated 2012).

The target in series [1] is T1, FGE (Bos taurus, UniProt Q0P5L5).
T1 construct: the soluble fraction (reticuloplasm) of bovine testis microsomes served as the starting material; from tissue; host or cells: bovine testis rough microsomes, reticuloplasm
T1 sequence (Q0P5L5 34-374): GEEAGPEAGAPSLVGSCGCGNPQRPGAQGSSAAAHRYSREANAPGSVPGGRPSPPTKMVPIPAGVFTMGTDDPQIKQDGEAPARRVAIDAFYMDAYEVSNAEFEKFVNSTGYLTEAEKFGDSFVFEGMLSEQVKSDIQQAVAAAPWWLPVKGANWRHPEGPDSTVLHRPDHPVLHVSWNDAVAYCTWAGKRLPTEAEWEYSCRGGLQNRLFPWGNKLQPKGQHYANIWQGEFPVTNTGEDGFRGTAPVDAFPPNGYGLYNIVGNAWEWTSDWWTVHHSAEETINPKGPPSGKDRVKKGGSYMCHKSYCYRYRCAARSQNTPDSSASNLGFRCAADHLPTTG
The experiment in a line: In vitro assay for FGE with peptide P23 as substrate (MALDI-TOF). The class given is biochemical. The note with it: incubation with extracts from microsomes of bovine pancreas or bovine testis. How it is done:
For monitoring the activity of FGE, the N-acetylated and C-amidated 23mer peptide P23 ([…]) (SEQ ID NO:33) was used as substrate. The conversion of the Cysteine residue in position 11 to FGly was monitored by MALDI-TOF mass spectrometry. A 6 μM stock solution of P23 in 30% acetonitrile and 0.1% trifluoroacetic acid (TFA) was prepared. Under standard conditions 6 pmol of P23 were incubated at 37° C. with up to 10 μl enzyme in a final volume of 30 μl 50 mM Tris/HCl, pH 9.0, containing 67 mM NaCl, 15 μM CaCl2, 2 mM DTT, and 0.33 mg/ml bovine serum albumin. To stop the enzyme reaction 1.5 μl 10% TFA were added. […] Activity (pmol product/h) was calculated on the basis of the peak height of the product divided by the sum of the peak heights of P23 and the product.
We had developed an assay for determining FGE activity in microsome extracts using in vitro synthesized [^35S] […] The quantitation of the product included tryptic digestion, separation of the peptides by RP-HPLC and identification and quantitation of the [^35S]-labeled FGly containing tryptic peptide by a combination of chemical derivatization to hydrazones, RP-HPLC separation and liquid scintillation counting (Fey et al., J. Biol. Chem., 2001, 276:47021-47028). […] The cysteine and the FGly containing forms of P23 could be identified and quantified by matrix-assisted laser desorption/ionisation time of flight (MALDI-TOF) mass spectrometry. […]

The target in series [2] is T1, FGE. The experiment in a line: In vitro FGE activity assay with [35S] ASA fragments (ribosome-associated nascent chain complexes) as substrate. The class given is biochemical, bovine. How it is done: We had developed an assay for determining FGE activity in microsome extracts using in vitro synthesized [^35S] ASA fragments as substrate. The fragments were added to the assay mixture as ribosome-associated nascent chain complexes. The quantitation of the product included tryptic digestion, separation of the peptides by RP-HPLC and identification and quantitation of the [^35S]-labeled FGly containing tryptic peptide by a combination of chemical derivatization to hydrazones, RP-HPLC separation and liquid scintillation counting (Fey et al., J. Biol. Chem., 2001, 276:47021-47028). For monitoring the enzyme activity during purification, this cumbersome procedure needed to be modified. […] We synthesized the 23mer peptide P23 (SEQ ID NO:33), which corresponds to ASA residues 60-80 with an additional N-acetylated methionine and a C-amidated serine residue to protect the N- and C-terminus, respectively. The cysteine and the FGly containing forms of P23 could be identified and quantified by matrix-assisted laser desorption/ionisation time of flight (MALDI-TOF) mass spectrometry. The presence of the FGly residue in position 11 of P23 was verified by MALDI-TOF post source decay mass spectrometry (see Peng et al., J. Mass Spec., 2003, 38:80-86). […]

Series [3] concerns the target T1, FGE. The experiment in a line: Affinity matrices: Affigel 10 derivatized with 16mer peptides, binding of FGE. On the set-up: species or system bovine. How it is done: Bovine testes were obtained from the local slaughter house and stored for up to 20 h on ice. The parenchyme was freed from connective tissue and homogenized in a waring blendor and by three rounds of motor pottering. Preparation of rough microsomes (RM) by cell fractionation of the obtained homogenate was performed as described (Meyer et al., J. Biol. Chem., 2000, 275:14550-14557) with the following modifications. Three differential centrifugation steps, 20 minutes each at 4° C., were performed at 500 g (JA10 rotor), 3000 g (JA10) and 10000 g (JA20). From the last supernatant the RM membranes were sedimented (125000 g, Ti45 rotor, 45 min, 4° C.), homogenized by motor pottering and layered on a sucrose cushion (50 mM Hepes, pH 7.6, 50 mM KAc, 6 mM MgAc2, 1 mM EDTA, 1.3 M sucrose, 5 mM β-mercaptoethanol). RMs were recovered from the pellet after spinning for 210 minutes at 45000 rpm in a Ti45 rotor at 4° C. Usually 100000-150000 equivalents RM, as defined by Walter and Blobel (Methods Enzymol.,1983, 96:84-93), were obtained from 1 kg of testis tissue. The reticuloplasm, i.e. the luminal content of the RM, was obtained by differential extraction at low concentrations of deoxy Big Chap, as described (Fey et al., J. Biol. Chem., 2001, 276:47021-47028). For FGE purification, 95 ml of reticuloplasm were dialyzed for 20 h at 4° C. against 20 mM Tris/HCl, pH 8.0, 2.5 mM DTT, and cleared by centrifugation at 125000 g for 1 h. 32 ml-aliquots of the cleared reticuloplasm were loaded on a MonoQ HR10/10 column (Amersham Biosciences, Piscataway, N.J.) at room temperature, washed and eluted at 2 ml/min with a linear gradient of 0 to 0.75 M NaCl in 80 ml of the Tris buffer. […] An aliqout of the eluate was substituted with 1 mg/ml bovine serum albumin, dialyzed against buffer A and analyzed for activity. […] The polypeptide composition of the starting material and preparations obtained after the chromatographic steps were monitored by SDSPAGE (15% acrylamide, 0.16% bisacrylamide) and staining with SYPRO Ruby (Bio-Rad Laboratories). […]

Another series concerns ARSA, ARSC and ARSE. The experiment in a line: Co-expression of FGE (SUMF1) and sulfatase cDNAs in cell lines, sulfatase activities. It counts as cell-based, human. As to conditions: co-transfection with ARSA, ARSC and ARSE cDNAs in various cell lines. An excerpt: To test the effect of FGE (SUMF1) on additional sulfatase activities in normal cells we overexpressed ARSA (SEQ ID NO:14), ARSC (SEQ ID NO:18) and ARSE (SEQ ID NO:22) cDNAs in various cell lines with and without co-transfection of the FGE (SUMF1) cDNA and measured sulfatase activities.
To test for functional conservation of the FGE (SUMF1) gene during evolution we overexpressed ARSA, ARSC and ARSE cDNAs in various cell lines with and without co-transfection of the […] and measured sulfatase activities.

Where two headings read alike, the source gives them in different places.

Consider Ac-MTDFYVPVSLCTPSRAALLTGRS-NH2 [P23], for which, on FGE [1], the “conversion of the peptide into a FGly containing derivative” value was “up to 95%”.
As for “scrambled peptide: variant of ASA65-80 with Cys69, Pro71 and Arg73 scrambled, PVSLPTRSCAALLTGR (SEQ ID NO:34) (a variant of the ASA65-80 peptide, in which residues Cys69, Pro71 and Arg73, critical for FGly formation, were scrambled)”, the “inhibition of FGE activity” value in the series with FGE [2] (added at 10 mM concentration) is “did not inhibit FGE activity”. In addition, the “binding of FGE to peptide immobilized to Affigel 10” value (“binding of FGE” below) with FGE [3] is given as “did not retain FGE activity”.
In the case of “ASA65-80: synthetic 16mer peptide corresponding to ASA residues 65-80 containing the sequence motif required for FGly formation (PVSLCTPSRAALLTGR)”, in the series with FGE [2], the “inhibition of FGE activity” value is recorded as “inhibited the FGE activity”. Besides, the “binding of FGE” value with FGE [3] was “bound FGE efficiently”.
As for “Ser69 peptide: variant of ASA65-80 with Cys69 replaced by serine, PVSLSTPSRAALLTGR (SEQ ID NO:35) (a variant of the ASA65-80 peptide, in which the Cys69 was replaced by a Serine)”, the “binding of FGE” value with FGE [3] was “efficiently bound FGE”.
With “FGE2 (SUMF2): FGE gene paralog located on human chromosome 7 (SEQ ID NOs: 45, 46)”, the “activity of FGE homologs on overexpressed human sulfatases” value with ARSA, ARSC and ARSE was “much weaker”.
